Assay results: paper PMC3942532 (2014)

Molecular target: dynorphin A-(1-13)-OH 1-13 (Homo sapiens, UniProt P01213)
Assay: radioligand competition

B1: mu opioid receptor (protein)
chain: MDSSTGPGNTSDCSDPLAQASCSPAPGSWLNLSHVDGNQSDPCGLNRTGLGGNDSLCPQTGSPSMVTAITIMALYSIVCVVGLFGNFLVMYVIVRYTKMKTATNIYIFNLALADALATSTLPFQSVNYLMGTWPFGTILCKIVISIDYYNMFTSIFTLCTMSVDRYIAVCHPVKALDFRTPRNAKIVNVCNWILSSAIGLPVMFMATTKYRQGSIDCTLTFSHPTWYWENLLKICVFIFAFIMPVLIITVCYGLMILRLKSVRMLSGSKEKDRNLRRITRMVLVVVAVFIVCWTPIHIYVIIKALITIPETTFQTVSWHFCIALGYTNSCLNPVLYAFLDENFKRCFREFCIPTSSTIEQQNSTRVRQNTREHPSTANTVDRTNHQLENLEAETAPLP
Ki: 4 nM
